For assay [1], the system named is CHO-APP cells. Nature of the assay: Aβ secretion from CHO-APP cells, sandwich ELISA. It is filed as cell-based, Chinese hamster. The conditions noted are these: 5 hrs treatment; 1 nM to 1 μM. The method, then:
Cells were treated for 5 hrs with compound concentrations ranging from 1 nM to 1 μM. Aβ secreted in the cell media was quantified using a sandwich ELISA. Data are calculated relative to Aβ secreted from control cells treated with DMSO (vehicle) alone.
Cells are seeded in 12-well plates and treated for 6-24 hrs with peptide or vehicle. After treatment, the cells are examined under a light microscope to evaluate toxicity. Culture media is collected, centrifuged and stored at −20° C. for Aβ ELISA and for sAPPβ analysis. Cells are harvested in PBS and cell pellets collected by centrifugation and frozen at −80° C. until use. Pellets are homogenized in RIPA buffer (0.1% SDS, 0.5% sodium deoxycholate, 1% Triton X-100, 150 mM NaCl in 50 mM Tris-HCl, pH 7.4) to assay for BACE1 enzymatic activity. The data is normalised to protein concentration determined by the BCA.
0.5 μg of mouse monoclonal antibody WO2 (Aβ1-16) is coated in 384-well plates. After blocking with hydrolysed casein and washing with PBS containing 0.05% Tween 20 (PBS-T), biotinylated IE8 antibody (Aβ18-22) (20 ng dilution in 10 μL blocking buffer) is added followed by culture media samples (50 μL/well). A standard curve of Aβ peptide (0.03-3 ng/well) is run in parallel. […] The plates are read in a Wallac Victor 2 Multicounter instrument and data calculated relative to the Aβ peptide standard curve.

For assay [2], the target named is T1, endogenous BACE1 (Homo sapiens, UniProt P56817).
T1 construct: endogenous in cells; host or cells: M17 human neuroblastoma cells (lysate)
T1 sequence (P56817 46-501): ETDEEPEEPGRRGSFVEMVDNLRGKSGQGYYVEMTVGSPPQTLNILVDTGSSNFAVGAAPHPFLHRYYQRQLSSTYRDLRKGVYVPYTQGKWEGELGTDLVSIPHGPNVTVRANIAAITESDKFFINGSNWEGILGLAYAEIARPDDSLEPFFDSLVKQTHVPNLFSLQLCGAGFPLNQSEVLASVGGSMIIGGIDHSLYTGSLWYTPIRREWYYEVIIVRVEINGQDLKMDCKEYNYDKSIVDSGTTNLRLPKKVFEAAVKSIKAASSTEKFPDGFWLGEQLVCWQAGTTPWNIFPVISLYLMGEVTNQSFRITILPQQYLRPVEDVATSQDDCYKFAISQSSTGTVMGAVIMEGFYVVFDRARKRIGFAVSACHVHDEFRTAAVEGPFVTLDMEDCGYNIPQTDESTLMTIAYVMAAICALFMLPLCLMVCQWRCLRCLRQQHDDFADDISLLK
Kind of assay: BACE1 enzyme activity assay on M17 human neuroblastoma cell lysate. Format: biochemical. The note with it: 200 nM peptide. The method, then: The M17 cell lysate was subjected to BACE1 enzyme activity assay and was read on a fluorometer in duplicate with one experimental group of a positive control, without the peptide inhibitor (0 nM), and an experimental group, with an added 200 nM concentration of the peptide inhibitor. […] The mean fluorescent units are a representation of the cleaved product of APP by BACE1 (P<0.0 5). This indicates the production of BACE1 in cultured human neuronal cells and the usefulness of this cell line.
The M17 cell lysate was subjected to BACE1 enzyme activity assay and was read on a fluorometer in duplicate with one experimental group of a positive control, without the peptide inhibitor (0 nM), and an experimental group, with an added 200 nM concentration of the peptide inhibitor. […] The mean fluorescent units are a representation of the cleaved product of APP by BACE1 (P<0.0 5).
The CelLytic extraction kit (Sigma-Aldrich) is used to prepare total protein extracts from M17 cells, with protein concentrations determined by BCA protein assay (Thermo Scientific Pierce, NH, USA), following the manufacturer's instructions.
Cell lysates obtained above are subjected to BACE1 enzyme assays, as described above.

The target in assay [3] is T2, IL-4 binding to IL-4Rα (Homo sapiens, UniProt P24394).
T2 construct: purchased SBH Sciences (IL-4Rα); Sigma-Aldrich (IL-4)
T2 sequence (P24394 26-232 limits assumed): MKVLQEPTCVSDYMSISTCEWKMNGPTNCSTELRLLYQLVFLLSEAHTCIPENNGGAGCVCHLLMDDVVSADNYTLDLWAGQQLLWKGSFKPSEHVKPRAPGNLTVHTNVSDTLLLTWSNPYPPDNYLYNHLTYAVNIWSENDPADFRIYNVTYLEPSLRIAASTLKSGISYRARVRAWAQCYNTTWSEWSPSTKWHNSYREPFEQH
Nature of the assay: Inhibition ELISA of IL-4 binding to IL-4Rα. The note with it: pre-incubation of IL-4Rα with nM amounts of the peptide. From the text:
(§1) After extensive washing, HRP will be colorimetrically detected with the substrate o-phenylenediamine (Sigma-Aldrich) and read at 492 nm, according to our established protocols.

Assay [4] has as its target BACE1 (Homo sapiens, UniProt P56817). Nature of the assay: BACE1 inhibition assay based on cleavage of fluorogenic APP substrate. The note with it: peptide 100 nM and 200 nM; versus 0 nM control. Format: biochemical. The method, then: The peptide concentrations of 100 nM and 200 nM show a significant (*) difference to the upper limit when compared with the negative control. The mean fluorescent units are a representation of the cleaved product of APP by BACE1 (P<0.0 5).
A fluorescent BACE1 activity assay kit (Sigma-Aldrich, NSW, Australia), is used to not only show the cleavage of APP by BACE1, but also the inhibitors' ability to prevent cleavage of APP by BACE1. A measurement of fluorescence expresses the resulting cleaved APP product, which indirectly measures the activity of BACE1 in cleaving APP. Assays are conducted in triplicate with (1, 10, 100 and 1000 nM) or without the peptide inhibitors, as negative controls. Commercially available BACE1 inhibitors (STA-200 and Merck Compound IV) are used as references. Data derived from assays at various substrate concentrations are used to determine Ki values and the mode of inhibition (competitive/allosteric) using the Lineweaver-Burk method.

Assay [5] concerns the target T3, IL-13 binding to IL-4Rα (Homo sapiens, UniProt P24394).
T3 construct: purchased SBH Sciences (IL-4Rα); Sigma-Aldrich (IL-13)
T3 sequence (P24394 26-232 limits assumed): T2 sequence (P24394 26-232 limits assumed)
Nature of the assay: Inhibition ELISA of IL-13 binding to IL-4Rα. The note with it: pre-incubation of IL-4Rα with nM amounts of the peptide.
From the text: as §1

Assay [6] concerns JAK-STAT6 signaling in HEK-Blue cells. Kind of assay: JAK-STAT6 signaling in HEK-Blue cells (SEAP reporter, QUANTI-Blue). Format: cell-based. The protocol: Positive Control (PC) included cells treated with IL-4 cytokine alone. Control 1 (C1) included cells incubated with peptide antagonist only and Control 2 (C2) included cells without any treatment. The results represent the mean of 3 replicates within an experiment and the error bars show standard deviation. P<0.05* denotes significance of optical density (OD) readings compared to positive control (PC).
The percentage values represented here are a reflection of treatments used in FIG. 9 (75 μM, 150 μM and 225 μM). […] Positive control is denoted at 0%, which is used as a referral point for the standard value at which inhibition begins.
Activation of this pathway leads to SEAP secretion in the supernatant and is easily detected using QUANTI-Blue medium that changes colour to purple/blue in the presence of SEAP, following manufacturer's instructions. Cells are grown and maintained in DMEM medium with 10% FCS at 37° C. in a 5% CO2-humidified chamber, following the manufacturer's instructions and established cell culture techniques. […]
In FIG. 9, six treatment wells were used in total; 4 wells treated with peptide N1 and 2 wells without peptide as positive and negative controls (shown in results section). […] The subsequent results were read using an xMark microplate absorbance spectrophotometer (Bio-Rad) at a wavelength of 640 nm

This note sets out measurements from patent US20170204140A1, “ANTAGONISTIC PEPTIDES” (Deakin University, priority 2014, published 2017).

Ends that are not written are not given here.

Chain of BACE1 (P56817 46-501, species assumed): as the sequence (P56817 46-501) above

For `C[C@@H](NC(=O)c1cc(C(=O)N[C@@H](Cc2ccccc2)[C@H](O)CNC2CC2)cc(N(C)S(C)(=O)=O)c1)c1ccccc1` [Compound IV], the “Aβ secreted in the cell media relative to DMSO control” value in assay [1] is “inhibits Aβ secretion in a dose dependent manner”.

As to FHESWPTFLSPS [peptide antagonist], the “inhibition of endogenous BACE1 activity” value in assay [2] is “more than 50%”. Further, the “reduction of IL-4 binding to IL-4Rα” value in assay [3] was determined as 25%. Further, the “inhibition of BACE1 activity” value in assay [4] is given as “more than 40%”. For the same compound, the “reduction of IL-13 binding to IL-4Rα” value in assay [5] is listed as 50%. The “inhibition of JAK-STAT6 signaling” value in assay [6] (225 μM peptide, IL-4 stimulated HEK-Blue cells, dose-dependent (75, 150, 225 μM)) was “up to 59%”. The “JAK-STAT6 signaling triggered by peptide alone” value in assay [6] (peptide without IL-4) is reported as “did not trigger a non-specific JAK-STAT6 signaling”.
